Laboratory results taken from patent US12296006B2, “Anti-LY6H antibodies and antibody drug conjugates” (Bluefin BioMedicine, Inc., priority 2017, dated 2025).
Positions count from the first letter of the chain named.

Tests used:
KE-37 = assay: Anti-Ly6H antibodies binding to endogenous cell lines by flow cytometry: KE-37; design: species or system human; key: (−): No binding; (+): Weak binding; (++): Moderate binding; (+++): Strong binding; (++++): Very strong binding; settings: primary antibodies 1 ug/ml, live cells on ice 30 minutes
Protocol: (§1) Staining for flow cytometry was performed in 1× cold PBS with 0.5% BSA. Primary antibodies (1 ug/ml) were incubated with live cells on ice for 30 minutes, after a brief wash, cells were incubated with Alexa Fluro® 488-conjugated anti-human IgG secondary antibody @1:1000 (709-546-149, Jackson ImmunoResearch). Acquisition of the data was performed on a MACSQuant© Flow Cytometers (Miltenyi Biotec) and analyzed with FlowJo software.
(§2) Fully human antibodies against LY6H were generated by hybridoma procedures. Briefly, H2L2 mice were immunized with either recombinant human Ly6H-ECD or BaF3 cells over-expressing LY6H and boosted with rabbit splenocytes expressing full length human LY6H or with ECD of LY6H recombinant protein. Splenocytes were fused with the mouse myeloma cell line X63-Ag8.653. Clones from H2L2 mice were identified by immunofluorescence (IF) based high content screening (HCS) on 293 cells overexpressing hLY6H, ratLy6H, and parental 293 cells not expressing LY6H, as well as endogenous small cell lung cancer (SCLC) cell line, H446. […] 270 hits were cryopreserved and stored in liquid nitrogen. Approximately 100 clones were selected for molecular cloning. Based on unique CDR3 sequences from the heavy chain variable domain, 10 antibodies from 8 families were chosen and confirmed by flow cytometry (MACSQuant® miltenybiotec.com) on the following cell lines. The small-cell-lung cancer cells (SCLC) included H446, DMS79, and H526 cells. The T-cell acute lymphoblastic leukemia (T-ALL) cancer cells included MOLT3 and KE-37 cells.

[1] = tested on: LY6H positive SCLC and T cell acute lymphoblastic leukemia (T-ALL) cell lines; assay: Flow cytometry binding of 12G7 to SCLC and T-ALL cell lines (FIG. 2); design: species or system human
Protocol: Dotted lines represent LY6H antibody.
as §1
as §2, with “Based on unique CDR3 sequences from the heavy chain variable domain, 10 antibodies from 8 families were chosen and confirmed by flow cytometry (MACSQuant® miltenybiotec.com) on the following cell lines. The small-cell-lung cancer cells (SCLC) included H446, DMS79, and H526 cells. The T-cell acute lymphoblastic leukemia (T-ALL) cancer cells included MOLT3 and KE-37 cells.” left out

DMS79 = assay: Anti-Ly6H antibodies binding to endogenous cell lines by flow cytometry: DMS79; design: species or system human; key: (−): No binding; (+): Weak binding; (++): Moderate binding; (+++): Strong binding; (++++): Very strong binding; settings: primary antibodies 1 ug/ml, live cells on ice 30 minutes
Protocol: as §1, §2

EOL1 = assay: Anti-Ly6H antibodies binding to endogenous cell lines by flow cytometry: EOL1; design: species or system human; key: (−): No binding; (+): Weak binding; (++): Moderate binding; (+++): Strong binding; (++++): Very strong binding; settings: primary antibodies 1 ug/ml, live cells on ice 30 minutes
Protocol: as §1
as §2, with “The small-cell-lung cancer cells (SCLC) included H446, DMS79, and H526 cells. The T-cell acute lymphoblastic leukemia (T-ALL) cancer cells included MOLT3 and KE-37 cells.” left out

[2] = target: H446, DMS79, H526, and MOLT3; assay: Measurement of antibody EC50 by flow cytometry; assay type: binding, human; settings: 100 nM to 0.1 nM antibody
Protocol: The assay uses 3-5 fold dilutions (from 100 nM to 0.1 nM) of antibody of a stock antibody concentration (100 nM) in binding buffer. Serial diluted antibodies were incubated with live cells on ice for 30 minutes, after a brief wash, cells were incubated with Alexa Fluro® 488-conjugated anti-human IgG secondary antibody @1:100, or 15 ug/ml (709-546-149, Jackson ImmunoResearch). Acquisition of the MFI (Median Fluorescent Intensity) was performed on a MACSQuant® Flow Cytometers (Miltenyi Biotec). EC50 was calculated using Dose-response EC50 shift by global fitting from GraphPad Prism.
EC50 or the concentration of antibody that gives half-maximal binding is determined by direct and saturable binding of an antibody dilution series to both target positive and negative cell lines. An estimate of affinity is interpreted from one-half the concentration at which antibody binding first achieves saturation. EC50 was measured in the following cell lines H446, DMS79, H526, and MOLT3 (FIG. 4). Though EC50 may not provide an accurate measure of affinity, it allows for ranking ordering of antibodies. 12G7, 11D9, 10B10, and 6D11 were ranked top, followed by 34H6, 1F8, and 2B11.

H446 = assay: Anti-Ly6H antibodies binding to endogenous cell lines by flow cytometry: H446; design: species or system human; key: (−): No binding; (+): Weak binding; (++): Moderate binding; (+++): Strong binding; (++++): Very strong binding; settings: primary antibodies 1 ug/ml, live cells on ice 30 minutes
Protocol: as §1, §2

H446 cells = assay: Internalization assay in H446 cells (LAMP1 co-staining); assay type: cell-based, human; settings: live H446 cells incubated with antibody at 37° C., fixed, permeablized, LAMP1 co-stain
Protocol: Live H446 cells were incubated with 12G7 for 2 hours, cells were then fixed, permeablized, and co-stained with LAMP1 antibody.
Live H446 cells were incubated with 12G7 antibody for 30 minutes at 37° C. After cytospin, cells were fixed with 4% PFA and permeablized with 100% methanol, and stained with LAMP1 antibody (#9091, Cell Signaling Technology, Inc.).

MOLT3 = assay: Anti-Ly6H antibodies binding to endogenous cell lines by flow cytometry: MOLT3; design: species or system human; key: (−): No binding; (+): Weak binding; (++): Moderate binding; (+++): Strong binding; (++++): Very strong binding; settings: primary antibodies 1 ug/ml, live cells on ice 30 minutes
Protocol: as §1, §2

H69 = assay: Anti-Ly6H antibodies binding to endogenous cell lines by flow cytometry: H69; design: species or system human; key: (−): No binding; (+): Weak binding; (++): Moderate binding; (+++): Strong binding; (++++): Very strong binding; settings: primary antibodies 1 ug/ml, live cells on ice 30 minutes
Protocol: as §1
as §2, with “The small-cell-lung cancer cells (SCLC) included H446, DMS79, and H526 cells. The T-cell acute lymphoblastic leukemia (T-ALL) cancer cells included MOLT3 and KE-37 cells.” left out

B1: 12G7: human anti-LY6H antibody, VH SEQ ID NO: 22, VL SEQ ID NO: 26 (antibody, V domains shown)
VH: QVQLQQWGAGLLKPSETLSLTCAVYGGSFSGYYWSWIRQPPGKGLEWIGEINHSGSTYYNPSLKSRVTMSVDTSKNQFSLKLSSVTAADTAVYYCAKRWELGAFDIWGQGTMVTVSS
VL: DIQMTQSPSSLSASVGDRVTITCRASQGISNYLAWYQQKPGKVPKLLIYAASTLQSGVPSRFSGSGSGTDFTLTISSLQPEDVATYYCQKYNSAPRTFGQGTKLEIK
- binding by flow cytometry, KE-37 (KE-37): (++++)
- binding to LY6H positive SCLC and T-ALL cell lines [1]: binds
- binding by flow cytometry, DMS79 (DMS79): (+++)
- binding by flow cytometry, EOL1 (EOL1): (−)
- rank ordering of antibodies by EC50 (half-maximal binding) [2]: ranked top
- binding by flow cytometry, H446 (H446): (++++)
- internalization / co-localization with LAMP1 (H446 cells): internalization
- binding by flow cytometry, MOLT3 (MOLT3): (+++)
- binding by flow cytometry, H69 (H69): (−)

B2: 6D11: human anti-LY6H antibody, VH SEQ ID NO: 1, VL SEQ ID NO: 5 (antibody, V domains shown)
VH: QVQLQQWGAGLFKPSETLSLTCAVYGGSFSGSLWSWIRQPPGKGLEWIGEINHSGSTNYTPSLKSRVTISVDTSKNQFSLKLTSVTAADTAVYYCARGRHIVVVTAIHSPFDYWGQGTLVTVSS
VL: B1 VL with Y49F
- binding by flow cytometry, KE-37 (KE-37): (++++)
- binding by flow cytometry, DMS79 (DMS79): (+++)
- rank ordering of antibodies by EC50 (half-maximal binding) [2]: ranked top
- binding by flow cytometry, H446 (H446): (++++)
- binding by flow cytometry, MOLT3 (MOLT3): (+++)

B3: 10B10: human anti-LY6H antibody, VH SEQ ID NO: 60, VL SEQ ID NO: 26 (antibody, V domains shown)
VH: QVQLQQWGAGLLKPSETLSLTCAVYGGSFSGYYWHWIRQPPGKGLEWIGEINHSESTKYNPSLKSRVTISVDTSKNQFSLKLSSVTGADTAVYYCARGQHIVVVTDSLGDYWGQGTLVTVSS
VL: B1 VL
- binding by flow cytometry, KE-37 (KE-37): (++++)
- binding by flow cytometry, DMS79 (DMS79): (+++)
- rank ordering of antibodies by EC50 (half-maximal binding) [2]: ranked top
- binding by flow cytometry, H446 (H446): (++++)
- binding by flow cytometry, MOLT3 (MOLT3): (+++)
